Publication PMC6625990, “Structural underpinnings of Ric8A function as a G-protein α-subunit chaperone and guanine-nucleotide exchange factor” (Nature Communications, 2019)

Key:
[1] = molecular target: full-length Avi-tagged Gαt, P04695; experiment: BLI (steady-state binding curve); conditions: chain shown with the change; Avi-tagged Gαt coupled to a streptavidin biosensor; parent: 24 nM
[2] = molecular target: full-length Avi-tagged Gαt, P04695; experiment: BLI (steady-state); conditions: chain shown with the change

Sequence of full-length Avi-tagged Gαt, P04695 (P04695 whole entry): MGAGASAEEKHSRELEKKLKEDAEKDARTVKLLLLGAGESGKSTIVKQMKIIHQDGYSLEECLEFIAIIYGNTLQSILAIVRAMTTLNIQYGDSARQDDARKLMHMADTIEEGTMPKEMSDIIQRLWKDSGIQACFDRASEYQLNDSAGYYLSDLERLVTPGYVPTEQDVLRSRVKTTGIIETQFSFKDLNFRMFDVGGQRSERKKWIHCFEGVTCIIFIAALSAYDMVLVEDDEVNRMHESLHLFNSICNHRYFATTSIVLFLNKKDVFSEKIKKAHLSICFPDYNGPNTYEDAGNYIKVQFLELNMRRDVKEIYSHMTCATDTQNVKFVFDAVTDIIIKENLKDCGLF

Binder	Kd [1]	Kd [2]
bovine Ric8A1–492, Q5E9J8 F169R (protein) MEPRAVADALETGEEDVVMEALRAYNRENSQSFTFDDAQQEDRKRLAKLLVSVLEQGLPPSRRVIWLQSIRILSRDRSCLDSFTSRRSLQALACYAGISASQGSVPEPLNMDVVLESLKCLCNLVLSSPVAQALAAEAGLVVRLAERVGLCRQSSFPHDVQFFDLRLLRLLTALRTDVRQQLFQELQGVRLLTRALELTLGMTEGERHPELLPPQETERAMEILKVLFNITFDSIKREVDEEDAALYRHLGTLLRHCVMLAAAGDRTEELHGHAVNLLGNLPVKCLDVLLTLEPHEGSLEFLGVNMDVIRVLLSFMEKRLHQTHRLKESVAPVLSVLTECARMHRPARKFLKAQVLPPLRDVRTRPEVGELLRNKLVRLMTHLDTDVKRVAAEFLFVLCSESVPRFIKYTGYGNAAGLLAARGLMAGGRPEGQYSEDEDTDTDEYKEAKASINPVTGRVEEKPPNPMEGMTEEQKEHEAMKLVNMFDKLSRH	1.7 µM	1.8 µM
bovine Ric8A1–492, Q5E9J8 A173W (protein) MEPRAVADALETGEEDVVMEALRAYNRENSQSFTFDDAQQEDRKRLAKLLVSVLEQGLPPSRRVIWLQSIRILSRDRSCLDSFTSRRSLQALACYAGISASQGSVPEPLNMDVVLESLKCLCNLVLSSPVAQALAAEAGLVVRLAERVGLCRQSSFPHDVQFFDLRLLFLLTWLRTDVRQQLFQELQGVRLLTRALELTLGMTEGERHPELLPPQETERAMEILKVLFNITFDSIKREVDEEDAALYRHLGTLLRHCVMLAAAGDRTEELHGHAVNLLGNLPVKCLDVLLTLEPHEGSLEFLGVNMDVIRVLLSFMEKRLHQTHRLKESVAPVLSVLTECARMHRPARKFLKAQVLPPLRDVRTRPEVGELLRNKLVRLMTHLDTDVKRVAAEFLFVLCSESVPRFIKYTGYGNAAGLLAARGLMAGGRPEGQYSEDEDTDTDEYKEAKASINPVTGRVEEKPPNPMEGMTEEQKEHEAMKLVNMFDKLSRH	> 10 µM	> 10 µM
